molecular target: HLA-B*07:02; test: IEDB peptide-MHC binding, purified MHC/competitive/fluorescence; ≥ and ≤ were set here for values at or beyond the usual limits of such assays; details: source organism: H1N1 subtype

Question: LPFDKITIM was tested. Which IC50 did it give?
Answer: 4810 nM

Question: LPFDRPTIM was tested. Which IC50 did it give?
Answer: 7910 nM

Question: LPFEKTTIM was tested. Which IC50 did it give?
Answer: 1190 nM

Question: For LPFGKTTIM, which IC50 is on record?
Answer: 881 nM

same assay, conditions: source organism: H1N1 subtype Influenza A/Oklahoma/7485/01

Question: How did the IC50 turn out when LPFDKTTIM was run?
Answer: 192 nM

same assay, conditions: source organism: H3N2 subtype

Question: Which IC50 does the source give for LPFDKPTIM here?
Answer: 335 nM

Question: For LPFDKQTIM, which IC50 is on record?
Answer: 46500 nM

Question: For LPFEKSIVM, which IC50 is on record?
Answer: 494 nM

Question: LPFERATII was tested. Which IC50 did it give?
Answer: 1180 nM

Question: LPFERSTVM was tested. Which IC50 did it give?
Answer: ≥ 149000 nM
